Test results from paper doi:10.1101/2020.02.11.944678.

Molecular target: Fibronectin (FN) from human plasma (human) (UniProt P02751)
UniProt P02751, sequence (P02751 32-2477): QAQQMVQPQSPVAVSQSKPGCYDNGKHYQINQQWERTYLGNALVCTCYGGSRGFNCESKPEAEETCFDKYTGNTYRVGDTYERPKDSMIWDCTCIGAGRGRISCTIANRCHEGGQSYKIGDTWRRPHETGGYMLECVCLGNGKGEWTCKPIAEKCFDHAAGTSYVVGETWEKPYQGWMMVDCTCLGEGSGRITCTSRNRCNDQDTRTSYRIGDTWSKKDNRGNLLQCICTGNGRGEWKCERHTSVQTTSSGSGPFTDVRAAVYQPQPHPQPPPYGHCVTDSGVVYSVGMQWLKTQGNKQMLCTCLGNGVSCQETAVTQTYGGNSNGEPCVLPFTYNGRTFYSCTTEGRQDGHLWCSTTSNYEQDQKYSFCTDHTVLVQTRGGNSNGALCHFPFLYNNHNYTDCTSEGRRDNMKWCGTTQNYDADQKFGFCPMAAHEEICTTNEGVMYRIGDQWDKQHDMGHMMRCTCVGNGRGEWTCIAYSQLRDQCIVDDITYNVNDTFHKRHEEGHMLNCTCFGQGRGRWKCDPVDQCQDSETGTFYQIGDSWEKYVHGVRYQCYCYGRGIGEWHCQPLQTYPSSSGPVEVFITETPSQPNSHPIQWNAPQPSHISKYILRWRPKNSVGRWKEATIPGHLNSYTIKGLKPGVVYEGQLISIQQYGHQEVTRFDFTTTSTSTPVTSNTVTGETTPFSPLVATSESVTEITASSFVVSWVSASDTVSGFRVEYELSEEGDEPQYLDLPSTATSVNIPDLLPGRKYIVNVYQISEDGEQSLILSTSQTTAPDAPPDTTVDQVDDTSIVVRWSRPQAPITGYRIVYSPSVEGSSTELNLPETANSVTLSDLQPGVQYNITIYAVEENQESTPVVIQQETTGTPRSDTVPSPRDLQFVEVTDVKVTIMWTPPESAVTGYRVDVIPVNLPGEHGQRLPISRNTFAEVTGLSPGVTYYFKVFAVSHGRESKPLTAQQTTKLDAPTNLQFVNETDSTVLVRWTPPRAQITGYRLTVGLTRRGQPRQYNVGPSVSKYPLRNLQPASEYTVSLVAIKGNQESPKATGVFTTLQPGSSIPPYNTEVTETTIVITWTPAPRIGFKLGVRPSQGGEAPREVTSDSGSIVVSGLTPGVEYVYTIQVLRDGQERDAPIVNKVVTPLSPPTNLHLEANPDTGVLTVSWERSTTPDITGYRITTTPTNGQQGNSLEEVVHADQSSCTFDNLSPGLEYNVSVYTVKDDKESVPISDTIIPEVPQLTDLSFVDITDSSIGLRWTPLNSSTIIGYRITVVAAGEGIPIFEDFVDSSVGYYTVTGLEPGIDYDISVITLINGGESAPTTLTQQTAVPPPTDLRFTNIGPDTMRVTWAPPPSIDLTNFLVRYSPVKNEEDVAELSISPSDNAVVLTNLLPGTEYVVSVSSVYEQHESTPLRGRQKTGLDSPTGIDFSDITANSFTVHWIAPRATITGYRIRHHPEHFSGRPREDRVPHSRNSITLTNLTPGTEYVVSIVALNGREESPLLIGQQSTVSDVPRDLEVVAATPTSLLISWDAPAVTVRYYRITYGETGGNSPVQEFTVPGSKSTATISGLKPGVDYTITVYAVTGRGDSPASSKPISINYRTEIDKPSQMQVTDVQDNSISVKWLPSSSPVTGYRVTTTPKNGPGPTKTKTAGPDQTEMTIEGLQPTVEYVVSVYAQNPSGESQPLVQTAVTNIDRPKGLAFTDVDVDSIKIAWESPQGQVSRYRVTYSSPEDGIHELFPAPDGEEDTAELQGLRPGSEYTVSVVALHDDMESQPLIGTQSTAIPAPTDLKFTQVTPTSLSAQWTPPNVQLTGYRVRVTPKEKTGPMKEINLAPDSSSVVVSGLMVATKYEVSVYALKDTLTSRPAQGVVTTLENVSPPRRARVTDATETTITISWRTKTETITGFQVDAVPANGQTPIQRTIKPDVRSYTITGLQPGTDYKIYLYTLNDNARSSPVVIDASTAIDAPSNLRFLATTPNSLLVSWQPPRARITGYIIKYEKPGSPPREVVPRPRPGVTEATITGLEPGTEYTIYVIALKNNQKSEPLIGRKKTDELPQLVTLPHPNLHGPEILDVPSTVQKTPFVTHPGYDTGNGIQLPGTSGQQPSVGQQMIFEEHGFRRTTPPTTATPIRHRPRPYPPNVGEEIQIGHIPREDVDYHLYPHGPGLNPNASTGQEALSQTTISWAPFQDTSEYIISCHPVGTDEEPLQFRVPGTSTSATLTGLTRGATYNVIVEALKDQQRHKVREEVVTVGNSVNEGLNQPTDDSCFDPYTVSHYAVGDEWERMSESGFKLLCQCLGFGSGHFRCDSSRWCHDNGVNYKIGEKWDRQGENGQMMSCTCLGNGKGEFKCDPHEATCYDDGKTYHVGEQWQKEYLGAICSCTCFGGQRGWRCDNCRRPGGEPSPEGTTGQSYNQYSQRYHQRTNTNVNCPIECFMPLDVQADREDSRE

**Q.** “Recombinant human αVβ3 integrin (from UniProt P06756;P05106) (receptor)” was tested. Which fold more bead attachment on FN-coated GO than on FN-coated RGO did it give?
**A.** The fold more bead attachment on FN-coated GO than on FN-coated RGO was 5 fold.
